In test [1] the target is human wild-type TTR protein in native conformation (human) (UniProt P02766). Description: SPR, antibody captured by anti-human IgG-Fc, TTR 3.2-316 nM, Langmuir 1:1 fit.
Test [2] addresses misfolded-aggregated human wild-type TTR (human), P02766. Description: direct ELISA, antigen coated at 10 µg/ml. As to conditions: remark: other sources report otherwise. Background: An ELISA detects its analyte on a solid surface through an enzyme-linked reagent.
Test [3] deals with misfolded-aggregated recombinant V30M-TTR (human), P02766. Description: direct ELISA, antigen coated at 10 µg/ml. As to conditions: remark: other sources report otherwise.
Test [4] concerns the target native TTR-V30M (human), P02766. Description: SPR, antibody captured by anti-human IgG-Fc, TTR 3.2-316 nM, Langmuir 1:1 fit. As to conditions: remark: other sources report otherwise.
The target of test [5] is native TTR-L55P (human), P02766. The description is as above. As to conditions: remark: other sources report otherwise.
Test [6] deals with misfolded-aggregated human wild-type TTR (human), P02766. The test is described as above. As to conditions: remark: other sources report otherwise.

B1: NI-301.35G11 (antibody, V domains shown)
VH: EVQLVESGGGLVQPGGSLRLSCVASGFTFSSYAMSWVRQVPGKGLEWVSSISGSGDTTKYTDSVKGRFTISRDNSKNTVFLQMSSLRAEDTALYYCVKDGSGRIDPFALWGQGTMVTVSS
VL: EIVMTQSPLSLPVTLGQPASISCRSSRSLVYSDGNIYLNWFQQRPGQSPRRLIYKVSNRDSGVPDRFSGSGSDTDFTLRISRVEAEDVGVYYCMQGTHWPRTFGQGTKVEIK
By Kd is commonly meant a measure of binding affinity in units of concentration. As usually defined, the EC50 is the concentration giving half of the maximal effect. In general, koff refers to the first-order rate constant of dissociation. Usually kon stands for a measure of how fast the partners come together. Take B1: the Kd in test [1] was more than 316 nM; in test [4], 33 nM; in test [5], more than 100 nM; in test [6] it was 12 nM. Further, the EC50 in test [2] came to 3.9 nM; in test [3], 5 nM. Moreover, the figures for the koff in test [4] and in test [6] were 0.00024 s⁻¹ and 0.00027 s⁻¹, respectively. For the same molecule, the results for the kon in test [4] and in test [6] were 7400 M⁻¹ s⁻¹ and 23000 M⁻¹ s⁻¹, respectively.

Values taken from patent publication US20160355576A1.
